The results in this text go back to paper PMC9493007.

Experiment [1] deals with YsaN wild type full length (untagged) (Yersinia enterocolitica 8081). Briefly: SEC; analytical Superdex 200 HR 10/30; about 10 µM protein pre-incubated with 1.5 mM ADP and 1.5 mM AlCl3 (ADP.AlFX); 50 mM Tris pH 8.0, 100 mM KCl, 4 mM MgCl2, 5 mM NaF, 1 mM DTT, 5% glycerol; 0.5 ml/min, room temperature; apparent molecular weight from a standard curve.
The target in experiment [2] is YsaN∆83 (Yersinia enterocolitica 8081). The description is as above.
Experiment [3] has the same target. Briefly: negative-stain TEM.

“And” between values parts separate entries of the source, which are not always exact repeats. Equal values may be shown once.

Turning to “YsaN wild type full length (untagged) (enzyme)”, in experiment [1], the stoichiometry N is 6 and 12. With YsaN∆83 (domain or fragment), the stoichiometry N in experiment [2] and in experiment [3] was 6 each time.
